Laboratory results: the supplement of paper PMC9170038

Tested on: MS2 coat protein
Assay: apparent KD of MS2 coat protein; designed switch direction (-1 OFF switch, 1 ON switch): -1; higher = weaker reporter binding
Procedure, shortened: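 Normalised cluster fluorescence was curve-fitted, and each design's median over clusters is its apparent KD. Before this, SNAP-549-labelled MS2 coat protein was titrated from 0.7 or 1.5 nM, doubling to 3 µM, over RNA switches transcribed on Illumina chips by stalled E. coli RNA polymerase. Titrations had no input, 200 uM small-molecule ligand, or an oligonucleotide input, and steps lasted 0.8–1.5 h (lowest) to 10–20 min (highest).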

[1] = input ligand: microRNA oligo, concentration not stated
[2] = Eterna round: R95, input ligand: FMN 200 uM
[3] = Eterna round: R95, input ligand: microRNA oligo, concentration not stated
[4] = Eterna round: R95, input ligand: none

Row | Sequence | apparent KD of MS2 coat protein (input ligand: FMN 200 uM) [nM] | apparent KD of MS2 coat protein [1] [nM] | apparent KD of MS2 coat protein (input ligand: none) [nM] | apparent KD of MS2 coat protein [2] [nM] | apparent KD of MS2 coat protein [3] [nM] | apparent KD of MS2 coat protein [4] [nM]
1 | ACAUAAAAGGCAGGAUAUUCAAACCCAUAGCUAGAAGAAGGGCCGAAGAACUUCUAACAUGAGGAUCACCCAUGUGAGCAUGGG [Ininesxeed] (Eterna round: R96, puzzle: Exclusion NG 1) | 82.4 | 43.9 | 64.6 |  |  | 
2 | CUGGUCCGAGGAUAUAUUUUGUGAAACAUGAGGAUCACCCAUGUAAUAAAAUGGAAAUAAAUAGAAGGCGGACUAG [Mat - Exclusion 5 - JL mod - D42] (puzzle: Exclusion 5) |  |  |  | 25.2 | 20.8 | 24.2
3 | GUAGCUGAUAAGGAUAUUGUACCUAACCUGCGUCGAGAAGGUGUCACAUGAGGAUCACCCAUGUUUAGGCAAAG [Eternabot (L2) Solution 22] (Eterna round: R97, puzzle: Exclusion 6) | 24.4 |  | 29.5 |  |  | 
4 | AUGAGAGCAGGAUAUGCAGGUGUGCCGGAAGAAAGAAGAAGACAUGAGGAUCACCCAUGUAGAAGGGCUAGCCC [Bibidi] (Eterna round: R96, puzzle: Exclusion 2) |  | 15.2 |  |  |  | 
5 | GCCAGAGCAGGAUAUUCAAUAUAUCACAUGAGGAUCACCCAUGUCCAGCGAAAGCUGGAGGGAGAAGGGCUCUGGC [Fiskers Ex 5 - 16] (puzzle: Exclusion 5) |  |  |  | 99.5 | 416 | 390
6 | CUUAAGGCAGGAUAUGCUUUUUGUGACAUGAGGAUCACCCAUGUGAUGCAGUUUGGGUUUGCAGAAGGGCCUGAGU [JR_E5_Sub034] (puzzle: Exclusion 5) |  |  |  |  | 82.6 | 
7 | AUUAAGCAGCAGGAUAUAAGUAUCUAAAGGUGGUUAGAAGGGCUGACAUGAGGAUCACCCAUGUGCUCUUCGUG [Reusat] (puzzle: Exclusion 6) |  |  |  |  | 13.3 | 
8 | CCUCUAUUUGUGAGGAUAUCGAUAAAAUGGAUUGUCGAGAAGGCACAUGAGGAUCACCCAUGUAUUGAACAGCA [JR_BMEx4_Sub022] (Eterna round: R97, puzzle: Brourd's mod of Exclusion 4) | 231 |  | 40.4 |  |  | 
9 | UUUGAAUAAGUGAGGAUAUACUGUUAGUAUUGAUUGUAGAAGGUACAUGAGGAUCACCCAUGUUUAGUAUUUAU [JR_BME4_Sub038] (puzzle: Brourd's mod of Exclusion 4) |  |  |  |  | 15.6 | 
10 | ACUAAUAGAGGAUAUACAGUUUAUUACAUGAGGAUCACCCAUGUUCUUCAAUGUAUAUAAGUAGAAGGCUAUGGAA [EX-5 Malc#4] (puzzle: Exclusion 5) |  |  |  |  | 56.9 | 
11 | UCGGCCGCCGUGAGGAUAUGCCCGCGCGCCCGCGGGCAGAAGGCACAUGAGGAUCACCCAUGUCCCGCGGCACC [salish99_bmx4_r4_125] (Eterna round: R97, puzzle: Brourd's mod of Exclusion 4) | 15.1 |  | 14.1 |  |  | 
12 | CCUAGUUGGUAAGGAUAUCCUACACUAUUCUGACCCGUGCAAGCUACAUGAGGAUCACCCAUGUGGGAGAAGGUGCGUUAACGU [Design 9] (Eterna round: R96, puzzle: Exclusion NG 2) | 31.2 | 23.4 | 26.7 |  |  | 
13 | CCGGAAGUACAGGAUAUCGUAACGGAGACGUUACGAGAAGGGUAUACAUGAGGAUCACCCAUGUGUCCUACCGG [Mat - Exclusion 6 - Eli Mod - D94] (puzzle: Exclusion 6) |  |  |  | 33.8 | 22 | 32.2
14 | ACAUGUUGCGCAGGAUAUGAGACACAUGAGGAUCACCCAUGUGGCUACAUGUCAUACCAAGCGUCUCAGAAGGGUGUUAACAUG [Ex NG2 #35] (Eterna round: R96, puzzle: Exclusion NG 2) | 23.5 | 20.5 | 28.4 |  |  | 
15 | UUCAGUCAUCCUUAUUCUUACAUGAGGAUCACCCAUGUUUGUUUAAUUAAGUUUUGUAAGUUUGUUGUUCGUUUUAU [JR_STOV1_v2_Sub073] (Eterna round: R97, puzzle: Sensor, turn-off variant 1) | 47.9 |  | 50.3 |  |  | 
16 | UUGCUACCUUGGUGCUCUACAAGCUUUUUGCUCGUUUUAACAUGAGGAUCACCCAUGUCUAGUGGAUCUGAUCGGGU [JL ViennaUCT Isreen mod 2] (puzzle: Sensor v3, turn-off variant 2) |  |  |  | 91.3 | 212 | 97.9
17 | CCAUUAUAAGGAUAUACAUGAGGAUCACCCAUGUACAGGUUAGUUGUACGUACACCGAGUAGAAGGUAUAGAGG [Eternabot (L1) Solution 21] (Eterna round: R97, puzzle: Exclusion 3) | 62.5 |  | 63.4 |  |  | 

Row | Sequence | apparent KD of MS2 coat protein (input ligand: FMN 200 uM) [nM] | apparent KD of MS2 coat protein [1] [nM] | apparent KD of MS2 coat protein (input ligand: none) [nM] | apparent KD of MS2 coat protein [2] [nM] | apparent KD of MS2 coat protein [3] [nM] | apparent KD of MS2 coat protein [4] [nM]
18 | AUUGACUGAGGAUAUUGUGCUGCUGACAUGAGGAUCACCCAUGUAUGUUAACUCGGCCGUCGAGAAGGCAGAAAUG [BotMod 20 - Jieux - Exclusion 5] (Eterna round: R97, puzzle: Exclusion 5) | 22.6 |  | 28.2 |  |  | 
19 | GUAUACAGAGGAUAUACGUGCGGCGUCAAAUGUCCAAGAGUACAUGAGGAUCACCCAUGUAGAAGGUUGAAAGC [Eternabot (L1) Solution 15] (Eterna round: R97, puzzle: Exclusion 2) | 21.7 |  | 26.6 |  |  | 
20 | AAAACGGGAGGAUAUCGUAUCGUACACAUGAGGAUCACCCAUGUCCGGUGCAUCCUCAUCCGAGAAGGCCCAUAAA [Inisrarier] (puzzle: Exclusion 5) |  |  |  | 25.8 | 31.4 | 25.9
21 | CGAUGUCUUCGGACAUCGAACAUGAGGAUCACCCAUGUAAUGAGCAGAUCUUCAUGCAAGCUUUUUGCUCGUCUUAU [Sensor v3 - turn-off variant 1 - 44] (puzzle: Sensor v3, turn-off variant 1) |  |  |  | 215 | 11.6 | 213
22 | UAUUAGCAAGCGAGAUCCCACAUGAGGAUCACCCAUGUAAUAAAGCAUCCAGAAUUACUGGGUGCAGCUCGUCUUAU [Winner reversed engineered 11] (Eterna round: R97, puzzle: Sensor, turn-off variant 1) | 32.7 |  | 31 |  |  | 
23 | AGGCGGACAUCUAAUACUCACAUGAGGAUCACCCAUGUUUGACCAAAUAUACAGGCCGGUUUGCUUAGUCUUACUUG [Eternabot (L2) Solution 43] (Eterna round: R97, puzzle: Sensor, turn-off variant 1) | 40.8 |  | 49.2 |  |  | 
24 | UAUUAGCAAGUAAGAUCCCACAUGAGGAUCACCCAUGUGCUCGUCUUAUAAGGUACUGUGACGAGAGUCACGGUACC [Mat - Sensor, turn-off var - Eli Mod - D45] (Eterna round: R97, puzzle: Sensor, turn-off variant 1) | 16.4 |  | 19.1 |  |  | 
25 | AGUAGUGGUAUCCGAUCCUACAUGAGGAUCACCCAUGUAGCUAGACGUGCACGCGAUGCUCGUCAGACUACCAGAUG [salish99_TOv1_r3_048] (puzzle: Sensor v3, turn-off variant 1) |  |  |  | 218 | 221 | 184
26 | AAAUAAUAGAUAAAAUAAUACAUGAGGAUCACCCAUGUGGGAUGCUGAGGGUGAUACAGGCUUUUUGCUCGUCUUAU (puzzle: Sensor v3, turn-off variant 1) |  |  |  | 78.7 | 16.3 | 99.9
27 | UUUAUAAUUUCAAUCUUCGCCAGCAAACUUACGCUAGCCACAUGAGGAUCACCCAUGUUUUUUGUUCGUUUUAUUCU [Veedcera] (puzzle: Sensor v3, turn-off variant 2) |  |  |  | 18 | 57.5 | 19.5
28 | GCUUGUGGGCAAGGAUAUCCUGCGCUGUUCUGGUUCGUGUCUGUCACAUGAGGAUCACCCAUGUGGGAGAAGGUGCCUUUGGCG [Design 65] (Eterna round: R96, puzzle: Exclusion NG 2) | 12.5 | 10.5 | 13.2 |  |  | 
29 | GAAUAGGCAGGAUAUACAUGAGGAUCACCCAUGUGCCGGCGAUAGGUACGAUCGAAAGGUAGAAGGGCCUAAAC [ChP 13.04.2015 #8] (puzzle: Exclusion 3) |  |  |  | 30.7 | 140 | 127
30 | UAUUCGCGAGGAUAUGCAGUCGAGUCCAUUACGUGUCUGGGACUUGAGGAUCACCCAAGUAGAAGGCGUCUCAG [salish99_ex2_r4_641] (Eterna round: R97, puzzle: Exclusion 2) | 160 |  | 194 |  |  | 
31 | CAGAAUUGAGGAUAUGAUCAAUUUAACAUGAGGAUCACCCAUGUAUGGGAAUGAUUCUGAUCAGAAGGCGAUUCUA [Exclusion 5: 1:b] (puzzle: Exclusion 5) |  |  |  | 289 | 408 | 79
32 | GCAGCUUAGUUAACAGACUGUUACAUGAGGAUCACCCAUGUGCAGGAUAUGGUCUGGAUUACAGGCCAGAAGGGUACAAGCUGC [Eli exng3 - 016] (Eterna round: R96, puzzle: Exclusion NG 3) | 12.8 | 9.37 | 14.2 |  |  | 
33 | GUACUACAUGAGGAUCACCCAUGUCAGGAUAUGGGAAUUUCAUCAAAAGAUGAAAUUCUUAGAAGGGACAGUAC [Omei Ex1 A5] (Eterna round: R97, puzzle: Exclusion 1) | 24.6 |  | 22.2 |  |  | 
